The labels stand for the following.
B1: ceriantRFP: red fluorescent protein from Cerianthus sp. DW-2003 (AY296063), SEQ ID NO: 46 (protein, listed as Cerianthus sp.)
chain: MNLSKNVSVSVYMKGNVNNHEFEYDGEGGGDPYTGKYSMKMTLRGQNCLPFSYDIITTAFQYGFRVFTKYPEGIVDYFKDSLPDAFQWNRRIVFEDGGVLNMSSDITYKDNVLHGDVWAVGVNFPPNGPVMKNEIVMEEPTEETFTPKNGVLVGFCPKAYLLKDGSYYYGNMTTFYRSKKSGQAPPGYHFVKHRLVKTNVGHGFKTVEQTEYATAHVSDLPK
B2: anm2CP: chromoprotein from Anthomedusae sp. SL-2003 (AY485336), SEQ ID NO: 48 (protein, listed as Anthomedusae sp.)
chain: MEGGPALFQSDMTFKIFIDGVVNDQKFTIIADGSSKFPHGDFNVHAVCETGKLPMSWKPICHLIQYGEPFFAKYPNGISHFAQECFPEGLTIDRTVRFENDGTMTSHHTYELDGTCVISRITVNCDGFQPDGPIMKDQLVDILPTETHMFPHGSNAVRQLCYIGFTTADGGLMMSHFDSKLTFNGSRAIKIPGPHFVTVIIKQMKDTSDKRDHVCQREVTYAHSVPRITSAI
B3: scubGFP: green fluorescent protein from Scolymia cubensis (AY037767), SEQ ID NO: 40 (protein, listed as Echinopora forskaliana)
chain: MQRAGMKVKEHMKIKLRMGGTVNGKHFAVNGTGDGYPYQGKQILKLIVEGSEPLPFAFDILSAAFQYGNRAFTEYPTEIADYFKQSFEFGEGFSWERSFTFEDGAICVATNDITMVGGEFQYDIRFDGLNFPEDGPVMQKKTVKWEPSTEIMYMQNGVLKGEVNMALLLQDKSHYRCDLKTTYKAKNNVPHPPGYHYVDHCIEILEERKDHVKLREHAKARSSLSPTSAKERKA
B4: efasCFP: cyan fluorescent protein from Eusmilia fastigiata (DQ206397), SEQ ID NO: 36 (protein, listed as Echinopora forskaliana)
chain: MSFSKQVLNDVTMTYFMEGSVNGHDFTIEGEGTGKPYEGHQRFNLRVTKGAPLPFAVDILSAAFAYGNRCFTKYPKEIPDFFKQSLPEDMSWERTMTFEDGGIVAISAHIRLIGNRFEHKSKFVGVNFPADGPVMQRKTLGWEPSSEKMTPRDGILKGYVPSFLVLQGGGNYRCDYDTSYRAMKPVEMPGGHFIQHRIVRRDIKKDSNGNTWQIQEDAFAHNSEVPDSA
B5: efofCP/RFP: protein from Echinopora forskaliana (EU498726), SEQ ID NO: 34 (protein, listed as Echinopora forskaliana)
chain: MSVIKQVMKTKLHLEGTVNGHDFTIEGKGEGKPYEGLQHMKMTVTKGAPLPFSVHILTPSHMYGSKPFNKYPADIPDYHKQSFPEGMSWERSMIFEDGGVCTASNHSSINLQENCFIYDVKFHGVNLPPDGPVMQKTIAGWEPSVETLYVRDGMLKSDTAMVFKLKGGGHHRVDFKTTYKAKKPVKLPEFHFVEHRLELTKHDKDFTTWDQQEAAEGHFSPLPKALP
B6: phiYFP: yellow fluorescent protein from Phialidium sp. SL-2003 (AY485333), SEQ ID NO: 50 (protein)
chain: MSSGALLFHGKIPYVVEMEGNVDGHTFSIRGKGYGDASVGKVDAQFICTTGDVPVPWSTLVTTLTYGAQCFAKYGPELKDFYKSCMPEGYVQERTITFEGDGVFKTRAEVTFENGSVYNRVKLNGQGFKKDGHVLGKNLEFNFTPHCLYIWGDQANHGLKSAFKIMHEITGSKEDFIVADHTQMNTPIGGGPVHVPEYHHITYHVTLSKDVTDHRDNMSLVETVRAVDCRKTYL
modifications: Aequorea Victoria
B7: spisCP: non-fluorescent chromoprotein from Stylophora pistillata (DQ206398), SEQ ID NO: 38 (protein, listed as Echinopora forskaliana)
chain: MSHSKQALADTMKMTWLMEGSVNGHAFTIEGEGTGKPYEGKQSGTFRVTKGGPLPFAFDIVAPTLKYGFKCFMKYPADIPDYFKLAFPEGLTYDRKIAFEDGGCATATVEMSLKGNTLVHKTNFQGGNFPIDGPVMQKRTLGWEPTSEKMTPCDGIIKGDTIMYLMVEGGKTLKCRYENNYRANKPVLMPPSHFVDLRLTRTNLDKEGLAFKLEEYAVARVLEV
B8: hcriCP: chromoprotein from Heteractis crispa (AF363776), SEQ ID NO: 32 (protein)
chain: MAGLLKESMRIKMYMEGTVNGHYFKCEGEGDGNPFTGTQSMRIHVTEGAPLPFAFDILAPCCEYGSRTFVHHTAEIPDFFKQSFPEGFTWERTTTYEDGGILTAHQDTSLEGNCLIYKVKVLGTNFPADGPVMKNKSGGWEPCTEVVYPENGVLCGRNVMALKVGDRRLICHLYTSYRSKKAVRALTMPGFHFTDIRLQMPRKKKDEYFELYEASVARYSDLPEKAN
modifications: Entacmaea quadricolor
B9: rfloRFP: red fluorescent protein from Ricordea florida (AY037773), SEQ ID NO: 42 (protein, listed as Ricordea florida)
chain: MSALKEEMKIKLTLVGVVNGHPFKIIGDGKGKPYEGSQELTLAVVEGGPLPFSYDILTTIVHYGNRAFVNYPKDIPDIFKQTCSGPGAGYSWQRTMSFEDGGVCTATSHIRVDGDTFNYDIHFMGADFPLNGPVMQKRTVKWEPSTEIMFQCDGLLRGDVAMSLLLKGGGHYRCDFKTIYKPKKNVKMPGYHFVDHCIEITSQQDDYNVVELYEGAVAHYSPLQKPCQAKA
B10: cpGFP: green fluorescent protein from Chiridius poppei (AB185173), SEQ ID NO: 52 (protein, listed as Chiridius poppei)
chain: MTTFKIESRIHGNLNGEKFELVGGGVGEEGRLEIEMKTKDKPLAFSPFLLSHCMGYGFYHFASFPKGTKNIYLHAATNGGYTNTRKEIYEDGGILEVNFRYTYEFNKIIGDVECIGHGFPSQSPIFKDTIVKSCPTVDLMLPMSGNIIASSYARAFQLKDGSFYTAEVKNNIDFKNPIHESFSKSGPMFTHRRVEETHTKENLAMVEYQQVFNSAPRDM
B11: rmueGFP: green fluorescent protein from Renilla muelleri (AY015996), SEQ ID NO: 44 (protein, listed as Renilla muelleri)
chain: MSKQILKNTCLQEVMSYKVNLEGIVNNHVFTMEGCGKGNILFGNQLVQIRVTKGAPLPFAFDIVSPAFQYGNRTFTKYPNDISDYFIQSFPAGFMYERTLRYEDGGLVEIRSDINLIEDKFVYRVEYKGSNFPDDGPVMQKTILGIEPSFEAMYMNNGVLVGEVILVYKLNSGKYYSCHMKTLMKSKGVVKEFPSYHFIQHRLEKTYVEDGGFVEQHETAIAQMTSIGKPLGSLHEWV

The assay can be described thus: In vitro H2O hydrolysis and oxygen evolution catalyzed by LEAT protein under light. Also on record: key to O2 evolution activity: +: similar O2 evolution activity as that of YFP; ++: higher O2 evolution activity than that of YFP by at least one order of magnitude; weak: lower activity than that of YFP by at least one order of magnitude. The following applies: water hydrolysis and O2 evolution under light, relative to YFP. In kind it is biochemical. As to the method:
1.85 ml of 50 mM phosphate buffer (pH6.5) was added in the reaction vessel of Clark-type oxygen electrode, then LEAT proteins (at a final concentration of 0.02-1 μg/ml) and 400 μM 2,3,5-trimethyl-1,4-benzoquinone (TMBQ) or other quinones were sequentially added into the buffer in dark. The oxygen evolution rate was measured under the light with corresponding excitation wave length for LEAT proteins and light intensity at 1-2 μmol m^−2 s^−1.
Turning to B1, the O2 evolution activity entry is reported as “++”.

As for B2, the O2 evolution activity entry is recorded as “+”.

As to B3, the O2 evolution activity entry is recorded as “+”.

For the molecule B4, the O2 evolution activity result is given as “+”.

Consider B5, for which the O2 evolution activity result was “+”.

For B6, the O2 evolution activity entry is reported as “++”.

In the case of B7, the O2 evolution activity result is reported as “++”.

As for B8, the O2 evolution activity entry is listed as “+”.

Take B9: the O2 evolution activity entry is given as “++”.

For the molecule B10, the O2 evolution activity result was “+”.

B11: the O2 evolution activity result is “++”.

The values are drawn from patent US20170037425A1, “METHOD FOR IMPROVING PLANT TRAIT” (SHANGHAI INSTITUTES FOR BIOLOGICAL SCIENCES, CHINESE …, priority 2012, published 2017).
